# Assay results: the DeepSol protein solubility set
# Assay: soluble on expression in E. coli; label from the status in PepcDB or PDB records
row,Sequence,soluble on expression in E. coli
1,MAFNTRANAEKYLATCYNFVPAAANLDHNSGLICGGEMWYLKPESHYYKNITSFNIARGMQNSNDPLLNYWDGGQGGYNIFRGIHECNIFIDNIDRVPDMRMEEKNKWKAEVMTLKAYYIYYLMLHYGPIPLLKENISVEADLDMMQLERETINDIVTYTTDLLDEAMNIPSGLTFNVTSPRTELGRITLPIAKAIKAKLLILAASPLFNGNTMYAEFVNSEGIPFFDQEYKKEKWEAAAAACLDAINTAHEAGASLYKFDEKLNYTPSSTLQQELTLRNTITGRFNSEIIWALGSNATDGIQNLCQAHLTSYSLGNRMIRSCSQLVPSLEIVEQFYTANGVPMDEDKDYEYENRYKLTTTPEDDPIHFTPNYTTIKMHLNREPRFYAYIGFDGGKWFSIECCNDNETSSYPIKSKKGDIAGVSDELYSPTGYFTKKLVSYQNVNTSATNINYVYSFPIIRLSDLYLLYAEALNELNETPTTDVYYYVQQVRNKAGLDEGGSLVNTWRNHSNRPDKPTTQRGMREIIQKERMIELAFEGHRYHDVRRWKLGSTYLNTQIKGWSVLEQDPEYFYNVRVLFTRKFMPRDYLWPIKTNSINRNPKLVQNPQW,not soluble
2,MNQWRVIHNKSYEGAMNMAIDEAIFTAYKKGHNKPTLRFYTWEPACLSIGYFQKLEDEIDLDKCRCMNIDYTRRITGGRAVLHDNELTYSIIIGEDNPLIDKSINLSYRYISEGLVKGLNLSGIETDNLNRGERISRENLSAACFNAHASYEVTINNKKVIGSAQSRKDGVLLQHGSIILDFDVEKLFKLIKTKTPELKERAMKFTAKKASGIENEIGRKIDIDILQKNIVKGLAEQFNVEFVEGDLTDYEKQLVKELYEKYKNEEYN,not soluble
3,AHHHHHHGSEKPRFKGHLKLLILKLLEENPLHGYGIMTRLEETFGIKVSPGAIYPILSSLRKSGLIEVAGEGKREKKLHKITEKGREYLRKHEDEVKEALEIANKLKEFSELGGKEVAQVLREVVENIDKLSEEQKAALAREFSNFVKRIKLILLGGEQYGGNNSGEPR,soluble
4,AIADTRSLQDFQDLCTFDVFKSFGHYYGYGVDQQALIDQEFKRIKGVTYLDHAGTTLFPESLIKGFHDDIPRNVYGNPHSHNSSSRLTHDTVESVRYKILAHFNTSPEDYSVIFTSGCTAALKLVADTFPWKPMSNKEPGSQFCYLTDNHTSVVGIRGATALQGVGTISVSPREVETRARNKTQTNGEEECSTPHLFCYPAQSNFSGRKYSLSYVKGIQSQQLYPACEHHGQWFVLLDAACFVSCSPLDLSQYPADFVPISFYKMFGFPTGLGALLVRNEAAEVLRKTYFGGGTAAAYLVEENYFIPKPNLASR,soluble
5,SLLPFKENRGLIFLDPPFEVKNEFQKLLEALKKIKLRVLNNTVLIWYPIKDLSLVCDVYHNYKNIGFKETMIIEYELLNSDKNMVKCGLMLINPPNIRGELEKLTEYLSGTLNLKFTYIYL,not soluble
6,MGSDKIHHHHHHMLNSDLDIRLEPRIKELYRLHKERSANIDWSYHEFIPWDKAMSFKRVPWEESQVTLPEGVIVAVETALLTEVNLPWYTSHLDYTFKNSMEVINDFVRTWTAEEDQHSSLLETYLLVTRNVNPTRLHQLRRRVVESGWFPDFTNPLATMAYTSLQELATLVFYNNVARVAGAHDKDLATLLRRLAKDEALHYAFYRDTVKAHLELDPNFIVFFEDVIINFSMPGAIMPDFTERMKTIAIDTNYGPLQYFDQVLDVVVKYWDIENLQPTSEEAKQSQANIMKYHGRLKRIKDRQSAKNKIDA,not soluble
7,MHHHHHHSSGVDLGTENLYFQSMGQCSVLLFPGQGSQVVGMGRGLLNYPRVRELYAAARRVLGYDLLELSLHGPQETLDRTVHCQPAIFVASLAAVEKLHHLQPSVIENCVAAAGFSVGEFAALVFAGAMEFAEGLYAVKIRAEAMQEASEAVPSGMLSVLGQPQSKFNFACLEAREHCKSLGIENPVCEVSNYLFPDCRVISGHQEALRFLQKNSSKFHFRRTRMLPVSGAFHTRLMEPAVEPLTQALKAVDIKKPLVSVYSNVHGHRYRHPGHIHKLLAQQLVSPVKWEQTMHAIYERKKGRGFPQTFEVGPGRQLGAILKSCNMQAWKSYSAVDVL,soluble
8,MARVLVVDDAAFMRMLLKKILTQAGHEVVGEASNGKEAVEKYKQLKPDLVTMDIVMPEMDGITAVKEIMKIDPNAKIIMITAVGQEAKVMEALKSGAKGYIVKPFQAQKVIEEVNRVLSS,soluble
9,GAGTQTAQTQALDSDGIPTGGEWITMFDGKTLNGWRGYCRQDVPLGWVVEDGSITYKGSDNKADTGFGDLIYDKKFKNFVFEIEWKIDKAGNSGIFYTAQEIEGTPIYYSSPEYQLLDNENMPDAWEGCDGNRQAGAVYDMIMPDPQPVKPYGNWNKTRIVVYNQRVIHYMNDVKILEFQFGTPVWRALVDHSKFSKFSTSPEKCPEAYDLMLQCGKQPGYIGMQDHGYGVCFRNIRIKEL,soluble
10,TFGEEESEACKKAFDLSPFPLLSKQKEAVFTAIESSISAIIGGAGTGKTTVLHAVLTAFEALGYVSDASLCPDKTTTNHNIKTMALSCRAAKRMRDCINKSSDGSRRERQISATSIAQFIHQTVIEDAEGKYLVVIDEASMLDVATMYNIITNIHPNVRILLVGDHYQLPPI,not soluble
11,MGSDKIHHHHHHMYVDEIHVEKCGPLSVGVYGGNQESDAYERGDAVLAWWDPELQFEFVMIFDTHHKTKNIDYIIEAISERKEKLKELFSYPIHLAFHHTHMYLLALFTDELFIEKCDQDDEELACLICLRKGEFLYWLSVGDCFAYLFHSEKTKNGKGRLNKRKNYEYIGRKNIFAANTPCFTSGVRGLEKGMNHIVMATDGILECDKRRFDDDQSLIEILHDGSCLQIEPVLTNVLQWKGRDCATIIGWSIDTENKRCAN,not soluble
12,MNRNDAYHTLISEICALSLISEPERFYESANFKISDVDFTLHYQDRDEGRAILIYGDMGALPARNRDSALLALMDINFHMFSGAHSPAFSWNAQTGRVLLMGSIGLERATAEGVLLLMKSFADLAREWREHGFMGPVGAAGAPVNMPASQATTRDTPASSGRFQ,not soluble
13,MIKKAFCMQVYPDQHAEYQRRHEKLWPEMRQMLKEHGAIKYQIFLNPETSTLFGYLEIEDEARWEQIALTPINQKWWNYMEDIMETNPDCSPMTAELKKVFEL,not soluble
14,MAGYDVVVVGGGHAGLEAAWAAAALGVRVALVTVNPDRIGMMPCNPAVGGPGKSQLVAEVVALGGLMGRAADAAAIHTRVLNRSKGPAVQSLRVQVDRDLYALKAQEILAERPVEVLRGEVAALWVEGGRLLGVRTVDGRTLPAKAVVVAGGTFLSGVVWYGRKSRPAGRQGEPPARFLSQSLKAVGHTLRRFKTGTPPRIRADSVDFGRLEVVPPEVPPGSFTGNPGPHAARLPTWQTRTTERTHRLILENLHLSPLYAGDIQGIGPRYCPSIEDKVVRFADKESHLLFVEPDGLSTTEVYLQGFSSSLPPELQEEMVRSLPGFERAVIQRYAYAVEYDSLDPTELTRGLQSRFLPGLFSAGQVNGTSGYEEAAAQGLLAGLNAARFALGLPEVHLPRESGYIGVLVDDLVGRGTDEPYRMMTSRVELRLLCRADNADERLTPLAVAWGLRPREDLERVEAKYRRVAAELRRLEALRVEGVSGLQWLRRPENTYRALAERFPPPEPLSPEEAYQVEVRAKYAGYIERQERLREKMRDLEAFRIPEGMDFPKVPGLSREAAEKLSRHRPKSLAEAARIPGVRDSDLTALAVHLRRGA,not soluble
15,MGSDKIHHHHHHMVEVLTESNQSLDSLEALCSKYRIERGIVATVVDLNERILAELAALPFPLLWLNHETPLPVGNLYETPETLGYDRIAAVVGANEQFPHNDILVIDAGTCITYEFIDSKGQYHGGNISPGMQMRYKALHQFTGRLPLIDSNGRKLPMGRDTETAIRAGVLKGMEYEISGYIEAMKHKYPELLVFLTGGDDFSFDSSVKSAIFADRFLVLKGLNRILNYNNGRI,not soluble
16,MAGEEINEDYPVEIHEYLSAFENSIGAVDEMLKTMMSVSRNELLQKLDPLEQAKVDLVSAYTLNSMFWVYLATQGVNPKEHPVKQELERIRVYMNRVKEITDKKKAGKLDRGAASRFVKNALWEPKSKNASKVANKGKSKS,not soluble
17,MGSDKIHHHHHHMTLDAVLTQIDTDLDAAMARLMALLRVPSISTDPAFDADVARAAQILCDDLTGLGFDASVRETTGHPMVVAHGDDTGPHVLFYGHYDVQPVDPLDLWDRDPFDPIIEEQNGKKVIRARGASDDKGQLMTFIEACRAWKAVTGKLPAKVTIFLEGEEESGSPSLVPFMEAHKDELTAEVALICDTGLFAEGVPAIVTQLRGMLQEEITVTGPRIDLHSGMFGGIAMNPIRVLSGVLAGLHDANGSVTVPGFYEGVPDISDDLRASWDALGFVPEAFLGPVGLSHPAGEAGRSGLEMIWSRPTAEVNGVWGGYTGAGFKTVLPSQAHAKISFRLVAGQDPDRLHENFVDWVTAQMPPDCTVSITQIAGSRASQMDTSHPIFETTRQALSDEWPNEAAYIGCGGSIPVAGHFKTILGMDSVLAGFGKDDDAIHSPNEKYDVESFHRGIRSWARVLGGLSEV,not soluble
18,MKTSPRRPLILKRRRLPLPVQNAPSETSEEEPKRSPAQQESNQAEASKEVAESNSCKFPAGIKIINHPTMPNTQVVAIPNNANIHSIITALTAKGKESGSSGPNKFILISCGGAPTQPPGLRPQTQTSYDAKRTEVTLETLGPKPAARDVNLPRPPGALCEQKRETCADGEAAGCTINNSLSNIQWLRKMSSDGLGSRSIKQEMEEKENCHLEQRQVKVEEPSRPSASWQNSVSERPPYSYMAMIQFAINSTERKRMTLKDIYTWIEDHFPYFKHIAKPGWKNSIRHNLSLHDMFVRETSANGKVSFWTIHPSANRYLTLDQVFKQQKRPNPELRRNMTIKTELPLGARRKMKPLLPRVSSYLVPIQFPVNQSLVLQPSVKVPLPLAASLMSSELARHSKRVRIAPKVLLAEEGIAPLSSAGPGKEEKLLFGEGFSPLLPVQTIKEEEIQPGEEMPHLARPIKVESPPLEEWPSPAPSFKEESSHSWEDSSQSPTPRPKKSYSGLRSPTRCVSEMLVIQHRERRERSRSRRKQHLLPPCVDEPELLFSEGPSTSRWAAELPFPADSSDPASQLSYSQEVGGPFKTPIKETLPISSTPSKSVLPRTPESWRLTPPAKVGGLDFSPVQTPQGASDPLPDPLGLMDLSTTPLQSAPPLESPQRLLSSEPLDLISVPFGNSSPSDIDVPKPGSPEPQVSGLAANRSLTEGLVLDTMNDSLSKILLDISFPGLDEDPLGPDNINWSQFIPELQ,soluble
19,IDRKVLSQLRNRFLSLNDGRYARALEGMSTRQQSVLTLLPLFFHVNHPLLPGYVSGSTPAGVSHYEPDTLALAEAQRLTRSFSYKARHGNPPQPIHGLFLMGSLGTLAQADQSDMDVWVCHDSELDLEAIAELRKKCQALEAWAATMGAEAHFFLIDPQRFKSGERDSQLSSDDCGTTQHYLLLDEFYRTAIWLAGRTPMWWMVPVYEEQNYEDYTYTLLSKRFIRASEVLDLGPMSHIPATEFIGAGLWQLFKGIGSPYKSVLKLLLIEVYSSEHPRVQCLSLRFKQAVFANQLDLDELDPYVVVYRRIEEHLQARNEPERLELVRRSLYLKVNKKLTGSTRQRNIGWQRLLLARLTSEWGWDERQLTLLDSRSQWKVRQVASERRALVNELNYSYRFQTRFARAQSTADTLDARDLTILGRRLYAAYERKAGKVEFINPGIAPDLAEDTLTLVHSPDKREPGKHQWALYNGNLGIHEWANFSPIKRSRELLELLAWCHRNNVIDTTTRVALHPGTSDLSEFELFNLLGALQQSIELPLPEVSDDELLKPSAPSEILLLINVGVDPLRHHRDLNILMTTERTDSLSYAGVRENLVLTLDQITLNTWNETLVSRYDGPHALLDCMSELLGSLPTSGKQPQIRVRCFCHNRASAIAQRVEELISTAQLLLARQLNHRYLIQVQQQYHVLEIKPGQVGHVVVNSLPGLFKYLGEELPRYSPLHLDPQALDGHDLALILPLGQPECIQVFYRINEPDADLYVLDEHNSLWHQRVPYHDEQSLLTPLQRFFHSLVYRRGASLPLDD,not soluble
